Source: paper doi:10.1101/2024.09.30.615892

Tests used:
[1] = test system: T1, EppR-His6 (Acinetobacter baumannii ATCC17978), ORF:cce4f89b; assay: EMSA
T1 sequence: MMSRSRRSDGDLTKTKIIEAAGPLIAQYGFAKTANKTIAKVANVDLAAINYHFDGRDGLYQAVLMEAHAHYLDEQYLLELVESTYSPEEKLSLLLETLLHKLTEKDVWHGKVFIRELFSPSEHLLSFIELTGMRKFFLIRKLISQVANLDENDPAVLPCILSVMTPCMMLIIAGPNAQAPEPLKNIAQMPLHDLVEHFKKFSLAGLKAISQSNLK

[2] = test system: EppR-His6 (Acinetobacter baumannii ATCC17978); assay: EMSA

| Substance | binding [1] | further results |
| --- | --- | --- |
| TATTTCATCCCCTTACTCATTAACTGAAATCTGCATTTTGAATTTGTAACATAATCAAGTTAACAAAATTACGGGCTGATATCTAGGGGAGTTTCAGTTGTTCGTCGAAATTATAGGTAGGAGATAAAATCTATGAAATGTCAGTTATTGATATGGAAATGTCTGAAAATGATAAGTTTTAATTGGTTATGATCGGAAATATAAGAGCTATATTTAATGGATGAGTTGAGTCTTTTAAATGTAGTAATGC (double strand) [umuC2008 promoter] | binds |  |
| ACTCATATTTAAGTGTTCAGAATTTCATTGATAAAAATCAAAACAGTCAGTAATAAGAACTATTTCACAATAGGTTTTGATTCTCTTCAAATTACCATTTCCGTTTTAACATCCCTGTTAAAAGCAAAATGGATTAAAATCTGATCATGAAATTTATTGTTATGCAAAAAAAATATTTCGTCAACTTGAAAATGTAACTTTTTCAAGTTACATTGTTTGTGTAGGATTTGAACGGTGAAATGGAGGCGAT (double strand) [umuDAb (1389) promoter] | binds |  |
| AATAAAGTAGAGCACAGCTTAATTTCAAATTTAAAAGTTGTGGATAAACAAATTGATCTAGAAAAAATGATCAACGGATAAAGGAATATTTAATTTTTTTATGCGGGCCTCTACCGCTTATAGAACAGTTTTTAAACAATTTTACTTATAGCTTCATTCA (double strand) [umuDC0636-0637 promoter] | binds |  |
| ACCATTTTGAAATCGTAACAAATTCAAGATAAATGGTAGAGTTGAGTAAAGAGAAATTCAAATTTAAAAAATTGTGGATAAACAAGTAAAAGTCAAAAATTGTCGCAGTATCTGGCGCATTTGGTCGGAAATTCTTCAGTTCTGATCTAG (double strand) [umuC2015 promoter] | binds |  |
| ATGTTTCCCCTAGCTTGATTTTGTAACATATTCAAGATGATATTCTAGAGATGAGCATAAATTCAAATTTAAAAAGTTGTGGATAAACAAGGGGAAGTCAAAAACTGACGTAGCCAAAAGTGCATTTGGTCGGAATTTATGCATTGCTGTACAGTGAGGCAACCATAGCATGGGAATCAAAATATTAGCTTTGAGATTGTAAATCTTTGTGGAACTTAATGTTCCACACTATTGCTTATTTATAGCAAAT (double strand) [umuDC1174-1173 promoter] | binds |  |
| eppR promoter |  | Kd [2]: 0.123 µM |
| CTTTTTTATTCATCTTTTTGGCCTTCTTATTAAATTCAAATTTACATAGTTTAAATTCAATTTAAATTTAAATTACCTTAATCTTTGAATAAAAGATATACTTTTATGATGAAATAAAATTAGGTTTAAACATGTCC (double strand) [eppR promoter] |  | Kd [1]: 0.123 µM |
